Data set [1] addresses N-terminal truncated AbiV lacking its first 23 amino acids (AbiV_Δ23) (L. cremoris MG1363). As to the kind of experiment: crystal structure.
The target in data set [2] is surface lysine methylated full-length AbiV (product of abiV1) from L. cremoris MG1363 (L. cremoris MG1363). As to the kind of experiment: crystal structure.
Data set [3] concerns the target T1, AbiV (AbiV1, HEPN RNase toxin) (Lactococcus cremoris MG1363, UniProt A2RJ64 1-201).
T1 sequence: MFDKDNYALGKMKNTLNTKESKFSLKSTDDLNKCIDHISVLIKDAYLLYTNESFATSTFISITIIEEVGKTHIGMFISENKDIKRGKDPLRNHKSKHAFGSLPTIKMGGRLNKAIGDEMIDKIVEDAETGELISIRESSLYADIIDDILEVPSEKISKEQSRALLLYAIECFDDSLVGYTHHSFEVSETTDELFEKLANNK
As to the kind of experiment: EMSA. (In general: Mobility shift assays separate free from complexed probe on a gel.)

As for “N-terminal truncated AbiV lacking its first 23 amino acids (AbiV_Δ23) (domain or fragment)”, the stoichiometry N in data set [1] is 2.
On to “surface lysine methylated full-length AbiV (product of abiV1) from L. cremoris MG1363 (enzyme)”, for which the stoichiometry N in data set [2] is 2.
On to AAGUAGCUGCAACUACUA (ssRNA) [abiV2 motif85-102 (18-mer short RNA)], for which, in data set [3], the binding result is “binds”.
Turning to AAUUGAUACUGUCAAUA (ssRNA) [abiV2 motif50-66 (17-mer short RNA)], the binding result in data set [3] is “no binding”.

Usually stoichiometry N stands for a count of units in the complex or per binding partner.

Values taken from paper doi:10.1101/2024.05.05.592566.
